Positions count from the first letter of the chain named.
B1: 687 (protein)
chain: LDNGLARTPTMGWLHWERFMCNLDCQEEPDSCISEKLFMEMAERMVTEGWKDAGYEYLCIDDCWMAPQRDSEGRLQADPQRFPHGIRQLANHVHSKGLKLGIYADVGNKTCAGFPGSFGYYDIDAQTFADWGVDLLKFDGCYCDSLENLADGYKHMSLALNRTGRPIVYSCEWPLYMWPFQKPNYTEIRQYCNHWRNFADIDDSWASIKSILDWTSRNQERIVDVAGPGGWNDPDMLVIGNFGLSWDQQVTQMALWAIMAAPLFMSNDLRAISPQAKALLQDKDVIAINRDPLGKQGYQLRKGDNFEVWERPLSGDAWAVAIINRQEIGGPRSYTIPVASLGKGVACNPACFITQLLPVKRQLGFYNATSRLKSHINPTGTVLLQLENTMQTSLKDLL
modifications: Synthetic Polypeptide sequence of Variant No. 687 of mature Human GLA
B2: 643 (protein)
chain: B1 chain with T10P, R290Q, R325S, A368W
modifications: Synthetic Polypeptide sequence of Variant No. 643 of mature Human GLA
B3: 691 (protein)
chain: B1 chain with T10P, R290Q, A368W
modifications: Synthetic Polypeptide sequence of Variant No. 691 of mature Human GLA
B4: 688 (protein)
chain: B1 chain with P228Q, R290Q, A368W
modifications: Synthetic Polypeptide sequence of Variant No. 688 of mature Human GLA
B5: 689 (protein)
chain: B1 chain with R290Q, N305L, A368W
modifications: Synthetic Polypeptide sequence of Variant No. 689 of mature Human GLA
B6: 646 (protein)
chain: B1 chain with G113C, R290Q, A368W
modifications: Synthetic Polypeptide sequence of Variant No. 646 of mature Human GLA
B7: 692 (protein)
chain: B1 chain with W256L, R290Q, A368W
modifications: Synthetic Polypeptide sequence of Variant No. 692 of mature Human GLA
B8: 693 (protein)
chain: B1 chain with R290Q
modifications: Synthetic Polypeptide sequence of Variant No. 693 of mature Human GLA
B9: 644 (protein)
chain: B1 chain with L237P, R290Q, A368W
modifications: Synthetic Polypeptide sequence of Variant No. 644 of mature Human GLA
B10: 642 (protein)
chain: B1 chain with T10P, E43D, A261G, R290Q, N305L
modifications: Synthetic Polypeptide sequence of Variant No. 642 of mature Human GLA
B11: 690 (protein)
chain: B1 chain with T10P, M156V, R290Q, A368W
modifications: Synthetic Polypeptide sequence of Variant No. 690 of mature Human GLA
B12: 645 (protein)
chain: B1 chain with P174S, R290Q, A368W
modifications: Synthetic Polypeptide sequence of Variant No. 645 of mature Human GLA

test: HTP-analysis of yeast culture supernatants, no challenge (MUGal hydrolysis); format: biochemical; conditions: activity of the variant/activity of Rd7BB (SEQ ID NO: 44)
Summary of the method: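 Activity read as 4-methylumbelliferyl α-D-galactopyranoside hydrolysis: fluorescence (355/448 nm) after sodium carbonate stop, following 30-180 min at 37° C with 2 mM MUGal stock at pH 4.6–4.8. Enzyme source is unchallenged culture supernatant of INVSc1 yeast expressing GLA variants, grown 66-84 h at 30° C.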

Molecule | Relative Activity of GLA Variants After No Challenge (NC)
B1 | + (>0.5 to 1.5 relative activity over Rd7BB (SEQ ID NO: 44))
B2 | + (>0.5 to 1.5 relative activity over Rd7BB (SEQ ID NO: 44))
B3 | + (>0.5 to 1.5 relative activity over Rd7BB (SEQ ID NO: 44))
B4 | + (>0.5 to 1.5 relative activity over Rd7BB (SEQ ID NO: 44))
B5 | + (>0.5 to 1.5 relative activity over Rd7BB (SEQ ID NO: 44))
B6 | − (<0.5 relative activity to Rd7BB (SEQ ID NO: 44))
B7 | − (<0.5 relative activity to Rd7BB (SEQ ID NO: 44))
B8 | + (>0.5 to 1.5 relative activity over Rd7BB (SEQ ID NO: 44))
B9 | − (<0.5 relative activity to Rd7BB (SEQ ID NO: 44))
B10 | + (>0.5 to 1.5 relative activity over Rd7BB (SEQ ID NO: 44))
B11 | + (>0.5 to 1.5 relative activity over Rd7BB (SEQ ID NO: 44))
B12 | + (>0.5 to 1.5 relative activity over Rd7BB (SEQ ID NO: 44))

test: HTP-analysis of supernatants pretreated with acid (MUGal hydrolysis); format: biochemical; conditions: activity of the variant/activity of Rd7BB (SEQ ID NO: 44); challenge at pH 3.5
Summary of the method: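 Fluorescence of MUGal hydrolysis (Ex. 355 nm, Em. 448 nm) is read after sodium carbonate quench. The enzyme source is INVSc1 yeast culture supernatant, first exposed to pH 3.3-4.3 McIlvaine buffer at 37° C. for 1-3 h, then reacted at pH 4.8 for 30-180 minutes.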

Molecule | Relative Activity of GLA Variants After Challenge at pH 3.5
B1 | − (<0.5 relative activity to Rd7BB (SEQ ID NO: 44))
B2 | − (<0.5 relative activity to Rd7BB (SEQ ID NO: 44))
B3 | + (>0.5 to 1.5 relative activity over Rd7BB (SEQ ID NO: 44))
B4 | + (>0.5 to 1.5 relative activity over Rd7BB (SEQ ID NO: 44))
B5 | + (>0.5 to 1.5 relative activity over Rd7BB (SEQ ID NO: 44))
B6 | − (<0.5 relative activity to Rd7BB (SEQ ID NO: 44))
B7 | − (<0.5 relative activity to Rd7BB (SEQ ID NO: 44))
B8 | + (>0.5 to 1.5 relative activity over Rd7BB (SEQ ID NO: 44))
B9 | − (<0.5 relative activity to Rd7BB (SEQ ID NO: 44))
B10 | + (>0.5 to 1.5 relative activity over Rd7BB (SEQ ID NO: 44))
B11 | − (<0.5 relative activity to Rd7BB (SEQ ID NO: 44))
B12 | + (>0.5 to 1.5 relative activity over Rd7BB (SEQ ID NO: 44))

test: HTP-analysis of supernatants pretreated with base (MUGal hydrolysis); format: biochemical; conditions: activity of the variant/activity of Rd7BB (SEQ ID NO: 44); challenge at pH 7.5
Summary of the method: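 GLA variants secreted from yeast INVSc1; culture supernatants pre-incubated with McIlvaine buffer pH 7.0–8.2 or 200 mM bicarbonate pH 9.1–9.7 at 37° C. for 1–18 h. Residual activity: MUGal (4 mM stock) hydrolysis at pH 4.3–4.8, 37° C., 30–180 min, carbonate quench; fluorescence Ex 355/Em 448 nm.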

Molecule | Relative Activity of GLA Variants After Challenge at pH 7.5
B1 | − (<0.5 relative activity to Rd7BB (SEQ ID NO: 44))
B2 | + (>0.5 to 1.5 relative activity over Rd7BB (SEQ ID NO: 44))
B3 | + (>0.5 to 1.5 relative activity over Rd7BB (SEQ ID NO: 44))
B4 | − (<0.5 relative activity to Rd7BB (SEQ ID NO: 44))
B5 | + (>0.5 to 1.5 relative activity over Rd7BB (SEQ ID NO: 44))
B6 | − (<0.5 relative activity to Rd7BB (SEQ ID NO: 44))
B7 | − (<0.5 relative activity to Rd7BB (SEQ ID NO: 44))
B8 | + (>0.5 to 1.5 relative activity over Rd7BB (SEQ ID NO: 44))
B9 | − (<0.5 relative activity to Rd7BB (SEQ ID NO: 44))
B10 | + (>0.5 to 1.5 relative activity over Rd7BB (SEQ ID NO: 44))
B11 | − (<0.5 relative activity to Rd7BB (SEQ ID NO: 44))
B12 | − (<0.5 relative activity to Rd7BB (SEQ ID NO: 44))

Reference: patent publication US11278600B2, “Human alpha-galactosidase variants” (Codexis, Inc., priority 2014, dated 2022)
